A word on the stoichiometry N: it is a count of units in the complex or per binding partner.

The data set deals with the molecule itself. The data set is described as follows: crystal structure.

B1: Sulfolobus solfataricus MCM protein N-terminal domain (residues 1–268) (domain or fragment, UniProt Q9UXG1 1-268, looked up)
chain: MEIPSKQIDYRDVFIEFLTTFKGNNNQNKYIERINELVAYRKKSLIIEFSDVLSFNENLAYEIINNTKIILPILEGALYDHILQLDPTYQRDIEKVHVRIVGIPRVIELRKIRSTDIGKLITIDGILVKVTPVKERIYKATYKHIHPDCMQEFEWPEDEEMPEVLEMPTICPKCGKPGQFRLIPEKTKLIDWQKAVIQERPEEVPSGQLPRQLEIILEDDLVDSARPGDRVKVTGILDIKQDSPVKRGSRAVFDIYMKVSSIEVSQKV
Consider B1, for which the “stoichiometry N” value came out at 6.

For the origin of these results see PMC2425480 (Nucleic Acids Research, 2008).
